These results are taken from the supplement of paper PMC12042874.

± gives the uncertainty stated by the source.

The series is described as follows: amyloid nucleation score (Sup35N fusion, yeast selection) (log enrichment); library NNK3; higher = more nucleation; inactive = no reads after selection. The essentials:
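Peptides of 20 random codons fused to Sup35N were expressed in psi-negative yeast, induced 24 hours with 100 μM copper sulfate, then grown 7 days at 30°C on medium lacking adenine and uracil. Input and output plasmid inserts were Illumina-sequenced. Nucleation score is the DiMSum log enrichment of output over input reads, centred on the mode score of non-aggregating sequences, excluding sequences with under 100 input reads. Random libraries had three technical output replicates.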
HMCRTSCDRFGAIPNFMHWS: the amyloid nucleation score result is “inactive”.
As for HMTGARRN, the entry is “inactive”; as for HNKDDK, “inactive”.
The entry for HNLMYDRYP is “inactive”; for HPCFLW it is “inactive”; for HPLAAGHGVYFSSCIFK it is 1.7 ± 0.097.
The entry for HPMRGDVGSRAVFRMGHFIH is “inactive”.
On to HPRELYTFKKSWFLGRDS, for which the amyloid nucleation score result was “inactive”.
Regarding HPRTLSRLNINFRANRYGWS, the amyloid nucleation score was -0.859 ± 1.7.
HPSTSTYRQRLPNCY: the amyloid nucleation score entry was “inactive”.
As for HQIFYVFEYEYSKRLLCMWW, the entry is “inactive”.
As for HRELRVTVHQKFNLRMRVSD, the amyloid nucleation score entry is “inactive”.
As for HRKMHDT, the entry is “inactive”; as for HRLVFCQLTR, “inactive”; as for HRMRLSCCTAFDTLVMIPIS, 0.482 ± 0.17.
The entry for HRVDND is “inactive”; for HRVRYVGPENSQNLCIRDYY it is “inactive”.
HSFFVVQAS: the amyloid nucleation score entry was “inactive”.
As for HSLWRLGYYM, the figure is 0.912 ± 0.15; as for HSNSRD, -0.231 ± 0.69.
The entry for HSQKTTKALRNPSNIQ is “inactive”; for HSRTMVLMCIAMIRVLGYGF it is “inactive”; for HSSNWCSVVITLCCTLRKDY it is 0.748 ± 0.19.
As for HSTGFPCLLVKITGLRHRLG, the entry is “inactive”; as for HSVLGMCFSPKGVDVTTLVN, “inactive”; as for HSWFFGFIFWLLNDHSIHYG, “inactive”.
In the case of HSYHPMPWTVNLGCHFGGYC, the amyloid nucleation score turned out to be 2.38 ± 0.068.
The entry for HTDIMIWFRSCYYFLSFFMY is “inactive”.
The entry for HTDWICYRRWYCIASRAMYQ is “inactive”; for HTGNLYHLSWCV it is “inactive”.
As for HTILSTTTYMKMSQYSLW, the entry is “inactive”; as for HTVKEGSSNNVVRVRIARRF, “inactive”; as for HVFFMKTEEPCTPEY, “inactive”.
HVLGRKLFHGVAVVLFSCEL: the amyloid nucleation score entry is “inactive”.
As for HVSGVIYVVGNN, the entry is “inactive”; as for HVYLAQGL, “inactive”.
In the case of HVYNLLRVVF, the amyloid nucleation score entry is “inactive”.
As for HWCTSKFIKPNGYPREERRV, the entry is “inactive”; as for HWFLYLPFSPYCIPRIPDYL, “inactive”.
As for HWFRTGDMGVDFTVEACDWL, the entry is “inactive”; as for HWHRLTSCGSRLGTGVHVVL, “inactive”; as for HWILSTPCLNVV, “inactive”.
Turning to HWLRCHEVEKVLVL, the amyloid nucleation score entry was “inactive”.
Take HWNCGVTNSGEFFALAVGFI: the amyloid nucleation score entry was “inactive”.
The entry for HWPCLNSYEAIVFFCGMDSH is “inactive”.
The figure for HWQYCLIFNQYVLKLCATHC is 1.04 ± 0.16; for HWSHNLQFIFFYSYVGLANE it is 1.96 ± 0.077; for HYDFWIISYLPRSPGNMAID it is “inactive”.
As for HYMFSVVNVSGDCFFLSESN, the figure is 3.24 ± 0.071; as for HYSLNASIYSTCTRTSMNPV, -0.136 ± 0.53; as for HYSLSQDISDSNGLQLLFLL, 2.1 ± 0.075.
Turning to HYYVDNPD, the amyloid nucleation score result was “inactive”.
As for IADSKHTNCFRYMSHVW, the entry is “inactive”.
As for IAEGFNTVGDLWNIGCCDSG, the figure is 0.154 ± 0.33.
